Source: publication PMC8298264, “Function of cofactor Akirin2 in the regulation of gene expression in model human neutrophil-like HL60 cells” (Bioscience Reports, 2021)

B1: sp¦P04075¦ALDOA_HUMAN (protein, UniProt P04075 2-364, looked up)
Fructose-bisphosphate …: PYQYPALTPEQKKELSDIAHRIVAPGKGILAADESTGSIAKRLQSIGTENTEENRRFYRQLLLTADDRVNPCIGGVILFHETLYQKADDGRPFPQVIKSKGGVVGIKVDKGVVPLAGTNGETTTQGLDGLSERCAQYKKDGADFAKWRCVLKIGEHTPSALAIMENANVLARYASICQQNGIVPIVEPEILPDGDHDLKRCQYVTEKVLAAVYKALSDHHIYLEGTLLKPNMVTPGHACTQKFSHEEIAMATVTALRRTVPPAVTGITFLSGGQSEEEASINLNAINKCPLLKPWALTFSYGRALQASALKAWGGKKENLKAAQEEYVKRALANSLACQGKYTPSGQAGAAASESLFVSNHAY
B2: sp¦Q9HB71¦CYBP_HUMAN (protein, UniProt Q9HB71 2-228, looked up)
Calcyclin-binding protein: ASEELQKDLEEVKVLLEKATRKRVRDALTAEKSKIETEIKNKMQQKSQKKAELLDNEKPAAVVAPITTGYTVKISNYGWDQSDKFVKIYITLTGVHQVPTENVQVHFTERSFDLLVKNLNGKSYSMIVNNLLKPISVEGSSKKVKTDTVLILCRKKVENTRWDYLTQVEKECKEKEKPSYDTETDPSEGLMNVLKKIYEDGDDDMKRTINKAWVESREKQAKGDTEF
B3: sp¦O75937¦DNJC8_HUMAN (protein, UniProt O75937 2-253, looked up)
DnaJ homolog subfamily C …: AASGESGTSGGGGSTEEAFMTFYSEVKQIEKRDSVLTSKNQIERLTRPGSSYFNLNPFEVLQIDPEVTDEEIKKRFRQLSILVHPDKNQDDADRAQKAFEAVDKAYKLLLDQEQKKRALDVIQAGKEYVEHTVKERKKQLKKEGKPTIVEEDDPELFKQAVYKQTMKLFAELEIKRKEREAKEMHERKRQREEEIEAQEKAKREREWQKNFEESRDGRVDSWRNFQANTKGKKEKKNRTFLRPPKVKMEQRE
B4: sp¦O75792¦RNH2A_HUMAN (protein, UniProt O75792 1-299, looked up)
Ribonuclease H2 subunit A: MDLSELERDNTGRCRLSSPVPAVCRKEPCVLGVDEAGRGPVLGPMVYAICYCPLPRLADLEALKVADSKTLLESERERLFAKMEDTDFVGWALDVLSPNLISTSMLGRVKYNLNSLSHDTATGLIQYALDQGVNVTQVFVDTVGMPETYQARLQQSFPGIEVTVKAKADALYPVVSAASICAKVARDQAVKKWQFVEKLQDLDTDYGSGYPNDPKTKAWLKEHVEPVFGFPQFVRFSWRTAQTILEKEAEDVIWEDSASENQEGLRKITSYFLNEGSQARPRSSHRYFLERGLESATSL
B5: sp¦P68104¦EF1A1_HUMAN (protein, UniProt P68104 2-462, looked up)
Elongation factor 1-alpha 1: GKEKTHINIVVIGHVDSGKSTTTGHLIYKCGGIDKRTIEKFEKEAAEMGKGSFKYAWVLDKLKAERERGITIDISLWKFETSKYYVTIIDAPGHRDFIKNMITGTSQADCAVLIVAAGVGEFEAGISKNGQTREHALLAYTLGVKQLIVGVNKMDSTEPPYSQKRYEEIVKEVSTYIKKIGYNPDTVAFVPISGWNGDNMLEPSANMPWFKGWKVTRKDGNASGTTLLEALDCILPPTRPTDKPLRLPLQDVYKIGGIGTVPVGRVETGVLKPGMVVTFAPVNVTTEVKSVEMHHEALSEALPGDNVGFNVKNVSVKDVRRGNVAGDSKNDPPMEAAGFTAQVIILNHPGQISAGYAPVLDCHTAHIACKFAELKEKIDRRSGKKLEDGPKFLKSGDAAIVDMVPGKPMCVESFSDYPPLGRFAVRDMRQTVAVGVIKAVDKKAAGAGKVTKSAQKAQKAK
B6: sp¦Q8WW12¦PCNP_HUMAN (protein, UniProt Q8WW12 2-178, looked up)
PEST proteolytic …: ADGKAGDEKPEKSQRAGAAGGPEEEAEKPVKTKTVSSSNGGESSSRSAEKRSAEEEAADLPTKPTKISKFGFAIGSQTTKKASAISIKLGSSKPKETVPTLAPKTLSVAAAFNEDEDSEPEEMPPEAKMRMKNIGRDTPTSAGPNSFNKGKHGFSDNQKLWERNIKSHLGNVHDQDN
B7: sp¦P10599¦THIO_HUMAN (protein, UniProt P10599 2-105, looked up)
Thioredoxin: VKQIESKTAFQEALDAAGDKLVVVDFSATWCGPCKMIKPFFHSLSEKYSNVIFLEVDVDDCQDVASECEVKCMPTFQFFKKGQKVGEFSGANKEKLEATINELV
B8: sp¦Q9BY43¦CHM4A_HUMAN (protein, UniProt Q9BY43 1-222, looked up)
Charged multivesicular body …: MSGLGRLFGKGKKEKGPTPEEAIQKLKETEKILIKKQEFLEQKIQQELQTAKKYGTKNKRAALQALRRKKRFEQQLAQTDGTLSTLEFQREAIENATTNAEVLRTMELAAQSMKKAYQDMDIDKVDELMTDITEQQEVAQQISDAISRPMGFGDDVDEDELLEELEELEQEELAQELLNVGDKEEEPSVKLPSVPSTHLPAGPAPKVDEDEEALKQLAEWVS
B9: sp¦P49458¦SRP09_HUMAN (protein, UniProt P49458 2-86, looked up)
Signal recognition particle 9 …: PQYQTWEEFSRAAEKLYLADPMKARVVLKYRHSDGNLCVKVTDDLVCLVYKTDQAQDVKKIEKFHSQLMRLMVAKEARNVTMETE
B10: sp¦P54727¦RD23B_HUMAN (protein, UniProt P54727 1-409, looked up)
UV excision repair protein …: MQVTLKTLQQQTFKIDIDPEETVKALKEKIESEKGKDAFPVAGQKLIYAGKILNDDTALKEYKIDEKNFVVVMVTKPKAVSTPAPATTQQSAPASTTAVTSSTTTTVAQAPTPVPALAPTSTPASITPASATASSEPAPASAAKQEKPAEKPAETPVATSPTATDSTSGDSSRSNLFEDATSALVTGQSYENMVTEIMSMGYEREQVIAALRASFNNPDRAVEYLLMGIPGDRESQAVVDPPQAASTGAPQSSAVAAAAATTTATTTTTSSGGHPLEFLRNQPQFQQMRQIIQQNPSLLPALLQQIGRENPQLLQQISQHQEHFIQMLNEPVQEAGGQGGGGGGGSGGIAEAGSGHMNYIQVTPQEKEAIERLKALGFPEGLVIQAYFACEKNENLAANFLLQQNFDED
B11: sp¦P52209¦6PGD_HUMAN (protein, UniProt P52209 1-483, looked up)
6-phosphogluconate …: MAQADIALIGLAVMGQNLILNMNDHGFVVCAFNRTVSKVDDFLANEAKGTKVVGAQSLKEMVSKLKKPRRIILLVKAGQAVDDFIEKLVPLLDTGDIIIDGGNSEYRDTTRRCRDLKAKGILFVGSGVSGGEEGARYGPSLMPGGNKEAWPHIKTIFQGIAAKVGTGEPCCDWVGDEGAGHFVKMVHNGIEYGDMQLICEAYHLMKDVLGMAQDEMAQAFEDWNKTELDSFLIEITANILKFQDTDGKHLLPKIRDSAGQKGTGKWTAISALEYGVPVTLIGEAVFARCLSSLKDERIQASKKLKGPQKFQFDGDKKSFLEDIRKALYASKIISYAQGFMLLRQAATEFGWTLNYGGIALMWRGGCIIRSVFLGKIKDAFDRNPELQNLLLDDFFKSAVENCQDSWRRAVSTGVQAGIPMPCFTTALSFYDGYRHEMLPASLIQAQRDYFGAHTYELLAKPGQFIHTNWTGHGGTVSSSSYNA
B12: sp¦O43396¦TXNL1_HUMAN (protein, UniProt O43396 2-289, looked up)
Thioredoxin-like protein 1: VGVKPVGSDPDFQPELSGAGSRLAVVKFTMRGCGPCLRIAPAFSSMSNKYPQAVFLEVDVHQCQGTAATNNISATPTFLFFRNKVRIDQYQGADAVGLEEKIKQHLENDPGSNEDTDIPKGYMDLMPFINKAGCECLNESDEHGFDNCLRKDTTFLESDCDEQLLITVAFNQPVKLYSMKFQGPDNGQGPKYVKIFINLPRSMDFEEAERSEPTQALELTEDDIKEDGIVPLRYVKFQNVNSVTIFVQSNQGEEETTRISYFTFIGTPVQATNMNDFKRVVGKKGESH

Tested on: human HL60 cells
Test: SWATH-MS proteomics, differential protein representation, akirin2 KO vs WT HL60 cells
Assay type: cell-based
Method: Total proteins were extracted from WT and akirin2 KO HL60 cells using the AllPrep DNA/RNA/Protein Mini Kit (Qiagen) and protein concentration was determined using the BCA Protein Assay with BSA (Sigma–Aldrich) as standard. Protein extracts (150 µg per sample, n=3 biological replicates) from each WT and KO cells were trypsin digested using the FASP Protein Digestion Kit (Expedeon Ltd., Abcam, Cambridge, U.K.) and sequencing grade trypsin (Promega, Madison, WI, U.S.A.) following manufacturer’s recommendations. The resulting peptides were finally desalted on to OMIX Pipette tips C18 (Agilent Technologies, Santa Clara, CA, U.S.A.), dried down and stored at −20 °C until mass spectrometry analysis. […] Three micrograms of each protein digest from the three biological replicates of WT and akirin2 KO HL60 cells were used for the generation of the reference spectral ion library as part of the SWATH-MS analysis.
Peptides were eluted in a 120-min gradient from 5 to 30% solvent B in solvent A followed by 15-min gradient from 30 to 60% solvent B in solvent A (solvent A: 0.1% formic acid in water, solvent B: 0.1% formic acid in acetonitrile) and directly injected into the mass spectrometer for analysis. For IDA experiments, the mass spectrometer was set to scanning full spectra (350–1400 m/z) using 250 ms accumulation time per spectrum, followed by up to 50 MS/MS scans (100–1500 m/z). Candidate ions with a charge state between +2 and +5 counts per second above a minimum threshold of 100 were isolated for fragmentation. One MS/MS spectrum was collected for 100 ms, before adding those precursor ions to the exclusion list for 15 s (mass spectrometer operated by Analyst TF 1.6, AB Sciex). Dynamic background subtraction was turned off. MS/MS analyses were recorded in high-sensitivity mode with rolling collision energy on and a collision energy spread of 5. For SWATH quantitative analysis, six independent samples (three replicates from WT and akirin2 KO HL60 cells, 5 µg each) were subjected to the cyclic DIA of mass spectra using the SWATH variable windows calculator (V 1.0, AB Sciex) and the SWATH acquisition method editor (AB Sciex), similar to established methods. […] For these experiments, a 50-ms survey scan (350–1400 m/z) was acquired at the beginning of each cycle, and SWATH–MS/MS spectra were collected from 100–1500 m/z for 70 ms at high-sensitivity mode, resulting in a cycle time of 3.6 s. Collision energy for each window was determined according to the calculation for a charge +2 ion-centered upon the window with a collision energy spread of 15. To create a spectral library of all the detectable peptides in the samples, the IDA MS raw files were combined and subjected to database search in unison using ProteinPilot software v. 5.0.1 (AB Sciex) with the Paragon algorithm. […] The detected protein threshold was set at 0.05. An independent false discovery rate (FDR) analysis, using the target–decoy approach provided by Protein Pilot (AB Sciex; https://sciex.com/products/software/proteinpilot-software), was used to assess the quality of identifications. Positive identifications were considered when identified proteins reached 1% of global FDR. […] Global normalization was performed according to the Total Area Sums (TAS) of all detected proteins in the samples. […] Heatmaps were prepared using the Heatmapper (http://www.heatmapper.ca/expression/) with average linkage and Euclidean distance measurement method.

[1] = SWATH-MS, akirin2 KO vs WT HL60 cells, over-represented in KO
[2] = Over-represented in KO, KO vs WT HL60 cells

Molecule | Fold Change [1] | Log (Fold Change) [1] | Fold Change [2] | Log (Fold Change) [2]
B1 | 1.436 | 0.1572 | – | –
B2 | 1.407 | 0.1482 | – | –
B3 | – | – | 1.352 | 0.1309
B4 | 1.47 | 0.1673 | – | –
B5 | 1.443 | 0.1593 | – | –
B6 | – | – | 1.373 | 0.1375
B7 | – | – | 1.394 | 0.1444
B8 | – | – | 1.396 | 0.1447
B9 | – | – | 1.349 | 0.1301
B10 | – | – | 1.363 | 0.1346
B11 | – | – | 1.367 | 0.1359
B12 | – | – | 1.348 | 0.1296
